Here are results for two molecules from US20170320956A1 (KYMAB, published 2017).

In assay [1] the target is T1, recombinant human LIGHT-214E, FLAG-tagged extracellular domain (human).
T1 construct: Trimer; Biotinylated in some assays
T1 chain: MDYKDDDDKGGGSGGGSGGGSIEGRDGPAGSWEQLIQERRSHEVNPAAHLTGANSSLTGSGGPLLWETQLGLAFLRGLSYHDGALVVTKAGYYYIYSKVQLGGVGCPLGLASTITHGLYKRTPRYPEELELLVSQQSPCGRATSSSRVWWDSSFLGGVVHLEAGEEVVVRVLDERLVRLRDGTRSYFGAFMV
Description: HTRF competition, LTβR-Fc binding to Flag-hLIGHT-214E. As to the method:
(§1) The following methods were carried out with a titration of inhibitor in order to establish the clone potency as measured by IC50 values in the assay. 5 μl of Flag-tagged hLIGHT (in-house) diluted to 2.5 nM final concentration (10 nM working concentration) in HTRF buffer with 5 μl of a titration of antibody purified from hybridoma supernatant diluted in HTRF assay buffer from 300 nM final (1200 nM working concentration) was pre-incubated for 1 hour at room temperature. To wells used to define total binding, 5 μl of LIGHT (10 nM working, 2.5 nM final) and 5 μl of hybridoma maintaining media (HMM,)) were added. To wells used to define non specific binding (receptor only) 10 μl of HMM was added. Total and non specific binding wells were pre-incubated for 1 hr at RT in the same plate as wells containing titration of inhibitor.
(§2) LIGHT receptor was diluted in HTRF assay buffer and added to all wells, 5 μl/well of HVEM-Fc or LTβR-Fc (R&D systems) at 1.2 nM for HVEM (0.3 nM final) and 0.4 nM for LTβR (0.1 nM final).

Assay [2] addresses T1, recombinant human LIGHT-214E, …. Description: HTRF competition, HVEM-Fc binding to Flag-hLIGHT-214E. As to the method:
as §1, §2

Assay [3] concerns the target T2, recombinant human LIGHT-214K, FLAG-tagged extracellular domain (human).
T2 construct: the IgK leader peptide is marked only by underlining (not visible here), so its residues were not removed; Trimer
T2 chain: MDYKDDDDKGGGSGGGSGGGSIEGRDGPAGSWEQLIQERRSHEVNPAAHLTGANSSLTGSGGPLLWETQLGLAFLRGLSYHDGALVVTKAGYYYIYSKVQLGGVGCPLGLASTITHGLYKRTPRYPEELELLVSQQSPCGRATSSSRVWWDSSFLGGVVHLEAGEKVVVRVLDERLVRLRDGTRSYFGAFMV
Kind of assay: SPR ProteOn, mAb captured on anti-mouse IgG, LIGHT 256 nM, 25 C. As to the method:
(§3) SPR analysis was carried out using the ProteOn™ XPR36 Array System (BioRad). Anti-mouse IgG (GE Healthcare BR-1008-38) was immobilised on a GLC biosensor surface using amine coupling, the surface was then blocked using 1M ethanolamine. […] Apparent affinities for the LIGHT-antibody interaction were determined using the 1:1 model inherent to the ProteOn XPR36 analysis software. The assay was run using HBS-EP (Teknova) as running buffer and carried out at 25° C.

Assay [4] addresses T1, recombinant human LIGHT-214E, …. Kind of assay: cell-based or functional assay.
Assay [5] addresses T3, mouse LIGHT (mouse, UniProt Q9QYH9 72-239, limits assumed).
T3 construct: also called murine LIGHT
T3 sequence (looked up): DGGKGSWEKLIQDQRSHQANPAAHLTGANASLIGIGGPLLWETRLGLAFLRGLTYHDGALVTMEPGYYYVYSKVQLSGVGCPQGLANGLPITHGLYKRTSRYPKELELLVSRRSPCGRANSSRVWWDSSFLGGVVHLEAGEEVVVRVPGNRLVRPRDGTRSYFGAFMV
Kind of assay: SPR ProteOn, mAb captured on anti-mouse IgG.

The target in assay [6] is human LIGHT-214E, full length, expressed on the surface of CHO-S cells (human, UniProt O43557 1-240). Description: flow cytometry, CHO-S cells expressing hLIGHT-214E. Background: Flow cytometry measures light scatter and fluorescence of single cells or particles in a stream.
Assay [7] concerns the target T4, recombinant cynomolgus monkey LIGHT, FLAG-tagged extracellular domain (cynomolgus (Macaca fascicularis), UniProt E9NVF7 59-240).
T4 construct: extracellular domain; also called cynomolgus LIGHT; cyno LIGHT
Description: SPR ProteOn, mAb captured on anti-mouse IgG, LIGHT 256 nM, 25 C, apparent affinity. As to the method: as §3

For assay [8], the target named is T1, recombinant human LIGHT-214E, …. Described as above. As to the method:
as §3

For assay [9], the target named is T2, recombinant human LIGHT-214K, …. Description: SPR cross-binding study, IgG4(PE) format; column hLIGHT 214K Binder. As to the method: All antibodies tested in the competition SPR were in human IgG4(PE) format (see Example 5 for re-formatting methods). To investigate antibodies that may share the same binding region on LIGHT, an SPR based assay was carried out on the ProteOn™ XPR36 Array System. […] The anti-human IgG surface was used as a capture surface to capture test antibodies as “ligands” for analysis. Using the ProteOn™ XPR36 Array System ability to address the capture surface in either the vertical or horizontal orientation the assay was carried out as follows. The “Ligand” antibodies were captured in the vertical orientation, and then a 1 in 1000 dilution of mouse serum was used to block the capture surface in the horizontal orientation. LIGHT was then passed over the capture surface in the horizontal orientation and bound to the captured ligand antibody, after which the same ligand antibody was passed over the “antibody-LIGHT” complex, (LIGHT is a trimer, so this ensures all available LIGHT molecules are bound to by the Ligand antibody), again the second application of the ligand antibody was in the vertical orientation. […] Binding/no-binding is determined by monitoring the sensorgrams, which were double referenced using a non-LIGHT binding antibody as a control sample and was included with every set of ligand antibodies run. […]

B1: 117C06 (purified from hybridoma supernatant) (antibody, V domains shown)
VH: QVQLVQSGAEVKKPGASVKVSCKASGYTFVNFGISWVRQAPGQGLEWMGWISVYSGNTNYAQKLQGRVTLTTDTSTTTAYMELRSLRSDDTAVYYCARHNWNDYWGQGTLVTVSS
VL: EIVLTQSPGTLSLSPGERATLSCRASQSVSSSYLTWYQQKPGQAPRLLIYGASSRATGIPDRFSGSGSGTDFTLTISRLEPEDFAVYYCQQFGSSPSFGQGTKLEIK
notes: Murine constant / human variable chimeric IgG, kappa, Protein G purified from hybridoma supernatant
For orientation: IC50 means the concentration needed to halve the response being measured. As to B1, the IC50 was 2.53 nM in assay [1] and 1.28 nM in assay [2]. The binding result in assay [3] is given as “no binding (tested: 256 nM)”; in assay [5] it was “no binding”; in assay [6] it was “binds”. In addition, the “HT29 IL-8 release, IC50” value in [4] came to 1.42 nM. In addition, the results for the Kd in [7] and in assay [8] were 2.82 nM and 1.03 nM, respectively.

B2: 117C06 in human IgG4(PE) format (antibody, V domains shown)
VH: QVQLVQSGAEVKKPGASVKVSCKASGYTFVNFGISWVRQAPGQGLEWMGWISVYSGNTNYAQKLQGRVTLTTDTSTTTAYMELRSLRSDDTAVYYCARHNWNDYWGQGTLVTVSS
VL: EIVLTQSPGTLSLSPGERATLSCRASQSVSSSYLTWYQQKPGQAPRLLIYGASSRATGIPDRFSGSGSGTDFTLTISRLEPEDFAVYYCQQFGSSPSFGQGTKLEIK
Turning to B2, the binding result in [9] is reported as “no binding”.
